According to paper PMC3349575:

Target: XD-CGFP fusion protein (X domain of the measles virus phosphoprotein fused to the C-terminal half of eGFP) (UniProt P03422)
Assay: split-GFP reassembly assay (fluorescence to OD600 ratio of E. coli co-expressing NGFP-N_TAIL and XD-CGFP)
Conditions: parent: est. 1.1; read off a plot

Chain of UniProt P03422 (P03422 459-507): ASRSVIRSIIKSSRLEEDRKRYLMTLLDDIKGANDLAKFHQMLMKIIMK

| Substance | response (x10^4 fluorescence intensity / OD600) |
| --- | --- |
| NGFP-wtN_TAIL fusion protein (C-terminal domain of the measles virus nucleoprotein fused to the N-terminal half of eGFP) mutant 1 (substitutions not printed) | 1.1 |
| NGFP-wtN_TAIL fusion protein (C-terminal domain of the measles virus nucleoprotein fused to the N-terminal half of eGFP) mutant 2 (substitutions not printed) | 0.9 |
| NGFP-wtN_TAIL fusion protein (C-terminal domain of the measles virus nucleoprotein fused to the N-terminal half of eGFP) mutant 3 (substitutions not printed) | 0.54 |
